Entries after “also recorded” stand apart in the source; their conditions may differ. Read-outs that look alike come from different tables or passages of the source.
Columns and labels:
[1] = biological target: T1, soluble DRB1*0401 molecules (DR4) (Homo sapiens, UniProt P01903+P01911, A100K/A169T/F76Y/I96L/K127E/L162R/M171V/N62H/P40V/Q125Y/R42H/S133A/S149N/S66Y/V115G/V209L/W38E); format: binding; design: key: +++: high binding affinity; ++: moderate binding affinity; +: low binding affinity; −: no binding
T1 construct: Soluble HLA class I A*0201 and HLA class II DRA1*0101/DRB1*0101/Ii, DRA1*0101/DRB1*0401/Ii and DRA1*0101/DRB1*0404/Ii molecules were expressed in SC-2 cells; made in house; host or cells: SC-2 cells

[2] = biological target: T2, soluble DRB1*0404 molecules (Homo sapiens, UniProt P01903+P01911, A100R/A169T/F76Y/I96L/K127E/L162R/M171V/N62H/P40V/Q125Y/R42H/S133A/S149N/S66Y/V209L/W38E); assay: Peptide binding assay, SDS-stability assay; design: key: −: no binding; +/−: weak binding; +: intermediate binding; ++: strong binding; details: individual pp65 15mer
T2 construct: Soluble HLA class I A*0201 and HLA class II DRA1*0101/DRB1*0101/Ii, DRA1*0101/DRB1*0401/Ii and DRA1*0101/DRB1*0404/Ii molecules were expressed in SC-2 cells; made in house; host or cells: SC-2 cells

[3] = tested on: PBMC (CD4 and CD8 positive T-cell compartments); assay: Intracellular IFN-γ staining combined with surface staining for CD4, CD8, CD69 (FACS); format: cell-based, human; details: donor 10788, peptide 80 μg/ml (FIG. 11)
Experimental: To distinguish between CD8-positive CTL mediated or CD4-positive HTL mediated reactivity, intracellular cytokine staining combined with staining for surface markers was performed: after thawing, PBMNC were kept overnight (37° C., 5% CO2) in RPMI1640 with 10% human serum type AB (BioWhittaker). Next day aliquots of 2 million PBMNC were incubated with peptide (80 μg/ml) or Concanavalin A (SIGMA). After 1 h, 10 μg/ml brefeldin A (SIGMA) were added and incubation was continued for 5 hours. Surface staining for CD4 (phycoerythrin), CD8 (cychrome), CD69 (allophycocyanine) was done with antibodies labelled as indicated (Pharmingen, San Diego, Calif., USA). After fixation with 1% para-formaldehyde in PBS, cells were permeabilized by incubating for 15 min in 0.5% BSA/0.1% Na-azide/0.1% saponin in PBS. Intracellular cytokines were stained with anti-IFN-γ (FITC) antibody 4S.B3 (Pharmingen). Samples (100,000 events in the lymphocyte gate) were read on a FACScalibur (Becton Dickinson).
FIG. 11: Confirmation of simultaneous CD4+ and CD8+ T-cell responses against CMVpp65 15mers 469, 470 by intracellular IFN-γ staining. PBMC from 2 donors (10687, 10788) were stimulated with either ConA as positive control (1st column), 15mers containing both putative class I and class II epitopes (columns 2 and 3) or medium as negative control (right column). Cells were stained for intracellular IFN-γ (x-axis) or surface the T-cell differentiation markers CD4 or CD8 (y-axis). Percentage in upper-right quadrant is indicated, numbers significant over background are shown boldface.

[4] = tested on: PBMC from CMV seropositive donors; format: cell-based, human
[5] = biological target: T2, soluble DRB1*0404 molecules; assay: Peptide binding assay, SDS-stability assay
[6] = tested on: DRB1*0401, DRB1*0101, DRB1*0404, DRB1*0701 and DRB1*1101; assay: Binding to soluble HLA molecules of different allels (promiscuity); design: species or system human
Experimental: In peptide binding reactions HLA molecules were used in a concentration of 0.5 μM, and each single peptide was added in 10-fold molar excess (5 μM) if not mentioned differently. […] The reaction was performed in PBS buffer (pH 7.4) at room temperature for 48 hours in the presence of a protease inhibitor cocktail (Roche) and 0.1% octyl-b-D-glucopyranoside (Sigma).
Peptide binding was evaluated in an SDS-stability assay (Gorga et al., 1987): trimeric HLA class II ab-peptide complexes are resistant to SDS and consequently appear as ˜60 kDa band in SDS-PAGE Western blot analysis. Individual HLA class II α and β chains not stabilized by a peptide binding with intermediate to high affinity migrate as ˜35 kDa and ˜30 kDa bands, respectively.
The binding affinities to DRB1*0701 and DRB1*1101 were tested by a peptide-competition assay (Reay et al., 1992). Briefly, binding of the biotinylated CLIP peptide (reference peptide) has been used for monitoring of HLA:peptide complex formation. […] In the case of lower affinity peptides they should be added in excess to the reference peptide to compete for occupancy of HLA binding grove. […] Alternatively, comparing of the amount of reference peptide bound to HLA molecules in the presence or absence of competitor peptide one can determine the binding activity of the peptide of interest.
In the present peptide-competition assay conditions of peptide binding were similar to described above. Soluble HLA molecules were used in the concentration of 0.5 μM and biotinylated CLIP was added to all samples in the final concentration of 2 μM. Competitor peptides were added in three different concentrations: 0.25, 5 and 100 μM. Binding reaction was performed in PBS buffer (pH 7.4) for 18 hours at 37° C. […] Briefly, MaxiSorb 96-well plates (Nunc, Denmark) were coated with mouse anti-αβ antibody L243 (purified from ATCC HB-55) by overnight incubation with 50 μl of 10 μg/ml dilution in PBS at 4° C. Non-specific binding to the plastic was blocked by incubation with T-PBS containing 3% of BSA for 2 hours at 37° C. and binding reactions were then “captured” for 2 hours at room temperature. […] The optical density at 405 nm was measured on a microplate reader SUNRISE (Tecan).
Some of the identified DRB1*0401 binding peptides, as well as others chosen by prediction algorithms were also tested for binding to soluble HLA molecules of different allels: DRB1*0101, DRB1*0404, DRB1*0701 and DRB1*1101 (Table 3).

[7] = biological target: T3, soluble DRB1*0101 molecules (Homo sapiens, UniProt P01903+P01911, A100R/D57E/F55L/F60I/F76Y/I96L/L162R/M171V/P40L/Q125E/R42F/V115G/Y59C); assay: Peptide binding assay, SDS-stability assay; design: key: −: no binding; +/−: weak binding; +: intermediate binding; ++: strong binding; details: individual pp65 15mer
T3 construct: Soluble HLA class I A*0201 and HLA class II DRA1*0101/DRB1*0101/Ii, DRA1*0101/DRB1*0401/Ii and DRA1*0101/DRB1*0404/Ii molecules were expressed in SC-2 cells; made in house; host or cells: SC-2 cells

[8] = tested on: HLA-DRB1*0401-transgenic mice splenocytes; format: in vivo, mouse; design: key to DRB1*0401 mice total SC (T cell response) / DRB1*0401 mice CD4+ (T cell response): −: no binding/T cell response; +/−: weak binding/T cell response; +: intermediate binding/T cell response; ++: strong binding/T cell response; details: IFN-gamma ELISpot, ex vivo re-stimulation; for DRB1*0401 mice CD4+ (T cell response): enriched CD4+ fraction of splenocytes of HLA-DR4 transgenic mice vaccinated with the longer peptide; for DRB1*0401 mice total SC (T cell response): total splenocytes of HLA-DR4 transgenic mice vaccinated with the longer peptide
[9] = biological target: T3, soluble DRB1*0101 molecules; assay: Peptide binding assay, SDS-stability assay; design: key: +++: high binding affinity; ++: moderate binding affinity; +: low binding affinity; −: no binding; details: individual pp65 15mer
[10] = biological target: T1, soluble DRB1*0401 molecules (DR4); format: binding; design: key to Binding to DRB1 *0401: −: no binding/T cell response; +/−: weak binding/T cell response; +: intermediate binding/T cell response; ++: strong binding/T cell response; details: soluble DRB1*0401 molecules
[11] = biological target: T1, soluble DRB1*0401 molecules (DR4); format: binding; design: key: −: no binding; +/−: weak binding; +: intermediate binding; ++: strong binding; details: individual pp65 15mer, SDS-stability assay
[12] = biological target: T3, soluble DRB1*0101 molecules; assay: Peptide binding assay, SDS-stability assay; design: key: −: no binding/T cell response; +/−: weak binding/T cell response; +: intermediate binding/T cell response; ++: strong binding/T cell response; details: soluble DRB1*0101 molecules
[13] = biological target: T2, soluble DRB1*0404 molecules; assay: Peptide binding assay, SDS-stability assay; design: key: −: no binding/T cell response; +/−: weak binding/T cell response; +: intermediate binding/T cell response; ++: strong binding/T cell response; details: soluble DRB1*0404 molecules
[14] = biological target: T2, soluble DRB1*0404 molecules; assay: Peptide binding assay, SDS-stability assay; design: key: +++: high binding affinity; ++: moderate binding affinity; +: low binding affinity; −: no binding; details: individual pp65 15mer
[15] = individual pp65 15mer, SDS-stability assay

Row | Sequence | Binding to DRB1*0401 [1, 15] | Binding to DRB1*0404 [2] | Intracellular IFN-γ in CD4 and CD8 positive T-cell compartments [3] | Induction of IFN-gamma secretion in T cells / PBMC from CMV seropositive donors [4] | Binding to DRB1*0404 (in words) [5] | Affinity for several HLA molecules (promiscuity) [6] | Binding to DRB1*0101 [7] | DRB1*0401 mice CD4+ (T cell response) [8] | DRB1*0401 mice total SC (T cell response) [8] | Binding to DRB1 *0401 [10] | other results
1 | DEDSDNEIHNPAVFT [Peptide 469] | − | +/− | significant IFN-γ secretion in both the CD8 and CD4 positive T-cell compartments | induce IFN-gamma secretion; also recorded: can induce functional, IFN-gamma secreting T cells in humans; also recorded: induce INF-gamma production | found to bind to DRB1*0404; also recorded: weakly binding to DRB1*0404 |  |  |  |  |  | 
2 | EDSDNEIHNPAVFTW [Peptide 470] | − | +/− | significant IFN-γ secretion in both the CD8 and CD4 positive T-cell compartments | induce IFN-gamma secretion; also recorded: can induce functional, IFN-gamma secreting T cells in humans; also recorded: induce INF-gamma production | found to bind to DRB1*0404; also recorded: weakly binding to DRB1*0404 | affinity for at least two HLA molecules |  |  |  |  | 
3 | LVPMVATVQGQNLKY [Peptide 496] | − | + |  |  |  | affinity for at least two HLA molecules | + |  |  |  | 
4 | LVSQYTPDSTPCHRG [Peptide 57] |  |  |  | induce INF-gamma production |  |  |  | + | ++ | ++ | T-cell responses, IFN-γ ELIspot ([4]; donor 10788 (FIG. 10)): strong T-cell responses; Binding to DRB1*0101 [9]: −; Binding to DRB1*0401 [11]: ++; Binding to DRB1*0101 [12]: −; Binding to DRB1*0404 [13]: −; Binding to DRB1*0404 [14]: −
5 | MSIYVYALPLKMLNI [Peptide 109] |  |  |  |  |  |  | + |  |  |  | Binding to DRB1*0401 [1]: −
6 | WKEPDVYYTSAFVFP [Peptide 175] | − |  |  |  |  |  | + | + | + | − | 

— patent publication US20050221381A1, “Method for isolating ligands” (priority 2002, published 2005)
